Where a chain is given by its changes, count along the chain named. Read-outs that look alike come from different tables or passages of the source. Values belong to the binder of their own block, whether it stands above or below them.
Experiments:
Assay in all cases: cell-based or functional assay
mouse RXFP1 [1] = target: T1, mouse RXFP1 (mouse, UniProt Q6R6I7 1-758)
T1 sequence (looked up): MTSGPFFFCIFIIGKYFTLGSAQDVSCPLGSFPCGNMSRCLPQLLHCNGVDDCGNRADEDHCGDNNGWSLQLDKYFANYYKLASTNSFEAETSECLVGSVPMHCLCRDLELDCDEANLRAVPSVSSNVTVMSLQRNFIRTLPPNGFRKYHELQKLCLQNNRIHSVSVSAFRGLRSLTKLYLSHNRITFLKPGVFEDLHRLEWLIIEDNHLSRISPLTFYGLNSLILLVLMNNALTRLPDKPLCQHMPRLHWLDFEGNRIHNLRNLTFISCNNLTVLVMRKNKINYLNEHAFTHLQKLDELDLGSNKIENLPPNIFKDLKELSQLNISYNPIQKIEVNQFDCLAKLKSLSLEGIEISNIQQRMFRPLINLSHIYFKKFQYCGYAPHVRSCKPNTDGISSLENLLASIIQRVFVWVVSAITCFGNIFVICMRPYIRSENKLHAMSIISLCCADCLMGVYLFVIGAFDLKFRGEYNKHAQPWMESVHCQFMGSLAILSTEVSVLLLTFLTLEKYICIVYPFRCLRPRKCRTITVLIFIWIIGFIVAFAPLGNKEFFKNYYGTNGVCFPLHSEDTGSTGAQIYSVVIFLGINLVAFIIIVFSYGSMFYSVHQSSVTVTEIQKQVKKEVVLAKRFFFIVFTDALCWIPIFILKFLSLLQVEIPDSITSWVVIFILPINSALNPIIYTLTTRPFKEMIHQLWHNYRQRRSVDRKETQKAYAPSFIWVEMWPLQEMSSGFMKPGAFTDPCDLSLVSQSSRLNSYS

human RXFP1 [2] = target: T2, human RXFP1 (human, UniProt Q9HBX9 1-757)
T2 sequence (looked up): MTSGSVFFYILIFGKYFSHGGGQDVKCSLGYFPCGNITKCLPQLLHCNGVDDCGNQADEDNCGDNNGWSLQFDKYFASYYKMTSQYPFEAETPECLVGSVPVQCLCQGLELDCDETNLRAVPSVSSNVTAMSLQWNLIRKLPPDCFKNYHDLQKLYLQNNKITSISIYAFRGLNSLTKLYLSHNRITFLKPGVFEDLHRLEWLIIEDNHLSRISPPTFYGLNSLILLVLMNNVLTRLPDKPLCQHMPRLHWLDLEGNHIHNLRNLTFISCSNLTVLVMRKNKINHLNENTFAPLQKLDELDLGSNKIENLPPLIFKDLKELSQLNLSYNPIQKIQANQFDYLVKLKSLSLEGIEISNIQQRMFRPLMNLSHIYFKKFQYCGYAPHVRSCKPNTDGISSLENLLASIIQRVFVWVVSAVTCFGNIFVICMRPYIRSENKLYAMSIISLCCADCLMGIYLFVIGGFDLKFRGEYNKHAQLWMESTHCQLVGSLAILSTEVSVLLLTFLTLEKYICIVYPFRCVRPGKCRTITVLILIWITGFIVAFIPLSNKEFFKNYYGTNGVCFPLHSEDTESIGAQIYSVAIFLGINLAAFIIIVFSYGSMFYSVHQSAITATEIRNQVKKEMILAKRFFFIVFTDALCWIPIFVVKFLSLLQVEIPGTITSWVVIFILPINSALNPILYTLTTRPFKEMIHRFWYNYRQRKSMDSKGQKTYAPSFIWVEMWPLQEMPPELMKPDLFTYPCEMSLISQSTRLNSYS

human RXFP2 [3] = target: T3, human RXFP2 (human, UniProt Q8WXD0 1-754)
mouse RXFP1 [4] = target: T1, mouse RXFP1; remark: listed apart in the source
human RXFP1 [5] = target: T2, human RXFP1; remark: listed apart in the source
human RXFP2 [6] = target: T3, human RXFP2; remark: listed apart in the source
mouse RXFP1 [7] = target: T1, mouse RXFP1; remark: listed apart in the source
human RXFP1 [8] = target: T2, human RXFP1; remark: listed apart in the source
human RXFP2 [9] = target: T3, human RXFP2; remark: listed apart in the source

T3 sequence (Q8WXD0 whole entry): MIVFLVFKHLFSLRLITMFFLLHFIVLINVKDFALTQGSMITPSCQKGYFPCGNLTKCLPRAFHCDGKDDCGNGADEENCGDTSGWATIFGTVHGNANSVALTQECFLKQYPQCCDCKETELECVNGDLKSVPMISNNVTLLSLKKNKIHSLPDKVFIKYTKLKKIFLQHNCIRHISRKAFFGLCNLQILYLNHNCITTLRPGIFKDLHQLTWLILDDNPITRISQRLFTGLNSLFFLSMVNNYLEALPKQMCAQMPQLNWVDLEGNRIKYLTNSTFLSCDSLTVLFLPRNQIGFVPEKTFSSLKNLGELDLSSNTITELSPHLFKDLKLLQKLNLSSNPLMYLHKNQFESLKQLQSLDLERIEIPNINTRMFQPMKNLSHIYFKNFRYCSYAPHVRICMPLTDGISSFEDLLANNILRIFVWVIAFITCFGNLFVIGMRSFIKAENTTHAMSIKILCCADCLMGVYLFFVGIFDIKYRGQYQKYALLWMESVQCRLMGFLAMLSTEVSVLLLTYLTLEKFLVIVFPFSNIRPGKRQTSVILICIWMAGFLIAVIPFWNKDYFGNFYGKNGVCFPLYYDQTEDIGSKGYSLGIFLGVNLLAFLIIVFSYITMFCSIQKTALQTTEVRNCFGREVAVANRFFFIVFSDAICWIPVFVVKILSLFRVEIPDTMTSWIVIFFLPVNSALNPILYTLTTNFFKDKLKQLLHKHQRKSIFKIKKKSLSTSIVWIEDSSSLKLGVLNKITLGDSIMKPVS

B3: RELAX0117 (Fc fusion)
chain 1: QLYSALANKCCHVGCTKRSLARFCAAAGGGGSGGGGSGGGGSGGGGSACPPCPAPEFEGGPSVFLFPPKPKDTLMISRTPEVTCVVVDVSHEDPEVKFNWYVDGVEVHNAKTKPREEQYNSTYRVVSVLTVLHQDWLNGKEYKCKVSNKALPASIEKTISKAKGQPREPQVYTLPPCREEMTKNQVSLWCLVKGFYPSDIAVEWESNGQPENNYKTTPPVLDSDGSFFLYSKLTVDKSRWQQGNVFSCSVMHEALHNHYTQKSLSLSPGGGGGSGGGGSGGGGSGGGGGSQLYSALANKCCHVGCTKRSLARFC
chain 2: SWMEEVIKLCGRELVRAQIAICGMSTWSAAAGGGGSGGGGSGGGGSGGGGSACPPCPAPEFEGGPSVFLFPPKPKDTLMISRTPEVTCVVVDVSHEDPEVKFNWYVDGVEVHNAKTKPREEQYNSTYRVVSVLTVLHQDWLNGKEYKCKVSNKALPASIEKTISKAKGQPREPQVCTLPPSREEMTKNQVSLSCAVKGFYPSDIAVEWESNGQPENNYKTTPPVLDSDGSFFLVSKLTVDKSRWQQGNVFSCSVMHEALHNHYTQKSLSLSPGGGGGSGGGGSGGGGSGGGGGSSWMEEVIKLCGRELVRAQIAICGMSTWS
EC50 mRXFP1 (M), cAMP HTRF assay (mouse RXFP1 [1]): 1.74e-11 M
EC50 hRXFP1 (M), cAMP HTRF assay (human RXFP1 [2]): 1.06e-11 M
EC50 hRXFP2 (M), cAMP HTRF assay (human RXFP2 [3]): 1.61e-08 M

B4: RELAX0013 (ligand)
chain 1: DSWMEEVIKLCGRELVRAQIAICGMSTWS
chain 2: QLYSALANKCCHVGCTKRSLARFC
EC50 mRXFP1 (M), cAMP HTRF assay (mouse RXFP1 [1]): 7.54e-13 M
EC50 hRXFP1 (M), cAMP HTRF assay (human RXFP1 [2]): 1.15e-12 M
EC50 hRXFP2 (M), cAMP HTRF assay (human RXFP2 [3]): 1.75e-09 M
EC50 mRXFP1 (M), cAMP HTRF assay (mouse RXFP1 [7]): 7.54e-13 M
EC50 hRXFP1 (M), cAMP HTRF assay (human RXFP1 [8]): 1.15e-12 M
EC50 hRXFP2 (M), cAMP HTRF assay (human RXFP2 [9]): 1.75e-09 M
EC50 mRXFP1 (M), cAMP HTRF assay (mouse RXFP1 [4]): 7.54e-13 M
EC50 hRXFP1 (M), cAMP HTRF assay (human RXFP1 [5]): 1.15e-12 M
EC50 hRXFP2 (M), cAMP HTRF assay (human RXFP2 [6]): 1.75e-09 M

B5: RELAX0091 (Fc fusion)
chain 1: QLYSALANKCCHVGCTKRSLARFCAAAGGGGSGGGGSGGGGSGGGGSACPPCPAPEFEGGPSVFLFPPKPKDTLMISRTPEVTCVVVDVSHEDPEVKFNWYVDGVEVHNAKTKPREEQYNSTYRVVSVLTVLHQDWLNGKEYKCKVSNKALPASIEKTISKAKGQPREPQVYTLPPCREEMTKNQVSLWCLVKGFYPSDIAVEWESNGQPENNYKTTPPVLDSDGSFFLYSKLTVDKSRWQQGNVFSCSVMHEALHNHYTQKSLSLSPG
chain 2: SWMEEVIKLCGRELVRAQIAICGMSTWSAAAGGGGSGGGGSGGGGSGGGGSACPPCPAPEFEGGPSVFLFPPKPKDTLMISRTPEVTCVVVDVSHEDPEVKFNWYVDGVEVHNAKTKPREEQYNSTYRVVSVLTVLHQDWLNGKEYKCKVSNKALPASIEKTISKAKGQPREPQVCTLPPSREEMTKNQVSLSCAVKGFYPSDIAVEWESNGQPENNYKTTPPVLDSDGSFFLVSKLTVDKSRWQQGNVFSCSVMHEALHNHYTQKSLSLSPG
EC50 mRXFP1 (M), cAMP HTRF assay (mouse RXFP1 [1]): 2.88e-11 M
EC50 hRXFP1 (M), cAMP HTRF assay (human RXFP1 [2]): 5.88e-11 M
EC50 hRXFP2 (M), cAMP HTRF assay (human RXFP2 [3]): > 1.09e-07 M

B7: RELAX0020 (Fc fusion)
chain 1: GGAGGACPPCPAPEFEGGPSVFLFPPKPKDTLMISRTPEVTCVVVDVSHEDPEVKFNWYVDGVEVHNAKTKPREEQYNSTYRVVSVLTVLHQDWLNGKEYKCKVSNKALPASIEKTISKAKGQPREPQVYTLPPCREEMTKNQVSLWCLVKGFYPSDIAVEWESNGQPENNYKTTPPVLDSDGSFFLYSKLTVDKSRWQQGNVFSCSVMHEALHNHYTQKSLSLSPGGGGGSGGGGSGGGGSGGGGGSSWMEEVIKLCGRELVRAQIAICGMSTWS
chain 2: GGAGGACPPCPAPEFEGGPSVFLFPPKPKDTLMISRTPEVTCVVVDVSHEDPEVKFNWYVDGVEVHNAKTKPREEQYNSTYRVVSVLTVLHQDWLNGKEYKCKVSNKALPASIEKTISKAKGQPREPQVCTLPPSREEMTKNQVSLSCAVKGFYPSDIAVEWESNGQPENNYKTTPPVLDSDGSFFLVSKLTVDKSRWQQGNVFSCSVMHEALHNHYTQKSLSLSPGGGGGSGGGGSGGGGSGGGGGSQLYSALANKCCHVGCTKRSLARFC
EC50 mRXFP1 (M), cAMP HTRF assay (mouse RXFP1 [1]): 2.79e-11 M
EC50 hRXFP1 (M), cAMP HTRF assay (human RXFP1 [2]): 4.41e-11 M
EC50 hRXFP2 (M), cAMP HTRF assay (human RXFP2 [3]): 3.54e-08 M

Results, then the binder that gave them:

EC50 mRXFP1 (M), cAMP HTRF assay (mouse RXFP1 [1]): 3.27e-11 M
EC50 hRXFP1 (M), cAMP HTRF assay (human RXFP1 [2]): 3.77e-11 M
EC50 hRXFP2 (M), cAMP HTRF assay (human RXFP2 [3]): 3.24e-08 M
EC50 mRXFP1 (M), cAMP HTRF assay (mouse RXFP1 [4]): 1.36e-11 M
EC50 hRXFP1 (M), cAMP HTRF assay (human RXFP1 [5]): 3.32e-11 M
EC50 hRXFP2 (M), cAMP HTRF assay (human RXFP2 [6]): 4.2e-08 M
B1: RELAX0023 (Fc fusion)
chain 1: DKTHTCPPCPAPEFEGGPSVFLFPPKPKDTLMISRTPEVTCVVVDVSHEDPEVKFNWYVDGVEVHNAKTKPREEQYNSTYRVVSVLTVLHQDWLNGKEYKCKVSNKALPASIEKTISKAKGQPREPQVYTLPPCREEMTKNQVSLWCLVKGFYPSDIAVEWESNGQPENNYKTTPPVLDSDGSFFLYSKLTVDKSRWQQGNVFSCSVMHEALHNHYTQKSLSLSPGGGGGSGGGGSGGGGSGGGGGSQLYSALANKCCHVGCTKRSLARFC
chain 2: DKTHTCPPCPAPEFEGGPSVFLFPPKPKDTLMISRTPEVTCVVVDVSHEDPEVKFNWYVDGVEVHNAKTKPREEQYNSTYRVVSVLTVLHQDWLNGKEYKCKVSNKALPASIEKTISKAKGQPREPQVCTLPPSREEMTKNQVSLSCAVKGFYPSDIAVEWESNGQPENNYKTTPPVLDSDGSFFLVSKLTVDKSRWQQGNVFSCSVMHEALHNHYTQKSLSLSPGGGGGSGGGGSGGGGSGGGGGSSWMEEVIKLCGRELVRAQIAICGMSTWS

EC50 mRXFP1 (M), cAMP HTRF assay (mouse RXFP1 [1]): 1.56e-11 M
EC50 hRXFP1 (M), cAMP HTRF assay (human RXFP1 [2]): 4.6e-11 M
EC50 hRXFP2 (M), cAMP HTRF assay (human RXFP2 [3]): 4.26e-08 M
B2: RELAX0024 (Fc fusion)
chain 1: B1 chain 1 with Y129C, C134S, W146S, L148A, Y187V
chain 2: B1 chain 2 with C129Y, S134C, S146W, A148L, V187Y

EC50 mRXFP1 (M), cAMP HTRF assay (mouse RXFP1 [1]): 9.1e-12 M
EC50 hRXFP1 (M), cAMP HTRF assay (human RXFP1 [2]): 3.57e-11 M
EC50 hRXFP2 (M), cAMP HTRF assay (human RXFP2 [3]): 3.42e-08 M
EC50 mRXFP1 (M), cAMP HTRF assay (mouse RXFP1 [7]): 2.24e-11 M
EC50 hRXFP1 (M), cAMP HTRF assay (human RXFP1 [8]): 5.81e-11 M
EC50 hRXFP2 (M), cAMP HTRF assay (human RXFP2 [9]): 4.4e-08 M
EC50 mRXFP1 (M), cAMP HTRF assay (mouse RXFP1 [4]): 2.24e-11 M
EC50 hRXFP1 (M), cAMP HTRF assay (human RXFP1 [5]): 5.81e-11 M
EC50 hRXFP2 (M), cAMP HTRF assay (human RXFP2 [6]): 4.4e-08 M
B6: RELAX0019 (Fc fusion)
chain 1: B7 chain 2 with C130Y, S135C, S147W, A149L, V188Y
chain 2: B7 chain 1 with Y130C, C135S, W147S, L149A, Y188V
